One experiment deals with OCT6 (POU3F1) (UniProt Q03052). The experiment in a line: co-immunoprecipitation. As to conditions: reference: wild type, MPA; sites T77.
A further experiment addresses isocitrate (ICT). The experiment in a line: SPR. As to conditions: 1:1 binding model.
A further experiment concerns the target IDH1 (UniProt O75874). The experiment in a line: co-IP of Flag-IDH1 and HA-IDH1. As to conditions: reference: Flag-IDH1 wild type, MPA; sites T77.

Here are results for 3 substances from publication PMC11187910.

pKd: −log10 of the molar value.

A word on the pKd: it is the negative decadic logarithm of the Kd, by convention in mol/L. The low end stands for a large Kd, the high end for a small Kd.

Chain of UniProt O75874 (O75874 whole entry T77A): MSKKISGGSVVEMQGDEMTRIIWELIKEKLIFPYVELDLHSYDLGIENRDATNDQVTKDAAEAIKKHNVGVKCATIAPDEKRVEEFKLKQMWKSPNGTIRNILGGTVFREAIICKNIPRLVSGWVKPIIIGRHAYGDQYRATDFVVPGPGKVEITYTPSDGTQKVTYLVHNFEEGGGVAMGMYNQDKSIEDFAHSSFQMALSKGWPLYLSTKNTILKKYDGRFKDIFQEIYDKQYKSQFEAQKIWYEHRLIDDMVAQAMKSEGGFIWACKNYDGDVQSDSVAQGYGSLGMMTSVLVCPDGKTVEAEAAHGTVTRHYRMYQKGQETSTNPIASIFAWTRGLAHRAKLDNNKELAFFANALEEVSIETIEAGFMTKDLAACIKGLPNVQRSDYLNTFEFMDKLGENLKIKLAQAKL

Regarding IDH1 (from UniProt O75874) T77A, MPA, in the experiment with OCT6 (POU3F1), the “binding against the reference” value is reported as “weaker”.

In turn, recombinant IDH1 WT T77A had a pKd with isocitrate (ICT) of 6.95.

Consider “IDH1 (from UniProt O75874) Flag-IDH1 T77A, MPA”, for which, in the experiment with IDH1, the “binding against the reference” value is “weaker”.
